{"source": "paper PMC3343632", "about": "(Nature cell biology, 2012)", "proteins": {"B1": {"name": "GFP-tagged tailless kinesin-1 motor, taillessKhc::GFP (1-849) (domain or fragment, UniProt P17210 1-849, looked up)", "chain": "MSAEREIPAEDSIKVVCRFRPLNDSEEKAGSKFVVKFPNNVEENCISIAGKVYLFDKVFKPNASQEKVYNEAAKSIVTDVLAGYNGTIFAYGQTSSGKTHTMEGVIGDSVKQGIIPRIVNDIFNHIYAMEVNLEFHIKVSYYEIYMDKIRDLLDVSKVNLSVHEDKNRVPYVKGATERFVSSPEDVFEVIEEGKSNRHIAVTNMNEHSSRSHSVFLINVKQENLENQKKLSGKLYLVDLAGSEKVSKTGAEGTVLDEAKNINKSLSALGNVISALADGNKTHIPYRDSKLTRILQESLGGNARTTIVICCSPASFNESETKSTLDFGRRAKTVKNVVCVNEELTAEEWKRRYEKEKEKNARLKGKVEKLEIELARWRAGETVKAEEQINMEDLMEASTPNLEVEAAQTAAAEAALAAQRTALANMSASVAVNEQARLATECERLYQQLDDKDEEINQQSQYAEQLKEQVMEQEELIANARREYETLQSEMARIQQENESAKEEVKEVLQALEELAVNYDQKSQEIDNKNKDIDALNEELQQKQSVFNAASTELQQLKDMSSHQKKRITEMLTNLLRDLGEVGQAIAPGESSIDLKMSALAGTDASKVEEDFTMARLFISKMKTEAKNIAQRCSNMETQQADSNKKISEYEKDLGEYRLLISQHEARMKSLQESMREAENKKRTLEEQIDSLREECAKLKAAEHVSAVNAEEKQRAEELRSMFDSQMDELREAHTRQVSELRDEIAAKQHEMDEMKDVHQKLLLAHQQMTADYEKVRQEDAEKSSELQNIILTNERREQARKDLKGLEDTVAKELQTLHNLRKLFVQDLQQRIRKNVVNEESEEDGGSLA"}}, "target": "the molecule itself", "experiment": "single-molecule TIRF microscopy with stepwise photobleaching"}
{"protein": "B1", "values": [{"measurement": "stoichiometry N", "result": 2}]}
